Data set [1] concerns the target clawed frog GNPTG (gamma subunit of GNPT) (clawed frog (Xenopus laevis)). In words: crystal structure.
The data set “crystal structure” deals with the molecule itself. The data set can be described thus: crystal structure.

In general, stoichiometry N refers to a count of units in the complex or per binding partner. Molecule “clawed frog GNPTG (gamma subunit of GNPT) (natural protein)” showed a stoichiometry N in data set [1] of 2.

B1: zebrafish GNPTAB minimal construct (catalytic and EF-hand domains) (domain or fragment)
chain: EVVVEWSRDQYHVLFDSYRDNVAGKSFQTRLCLPMPIDVVYTWVNGTDPKLIKEVTELKRSKRDPLIPECQGKQTPEKDKCYRDDNTASRFEDNEELRYSLRSIEKHAPWVRHIFIVTNGQIPSWLNLDNPRVSVVTHQDIFQNQTHLPTFSSPAIETHIHRIPGLSQKFIYLNDDVMFGKDVWPDDFYSHSKGQKVYLTWPVPNDTFADSLRYVNRLLNAQFGFTSRKVPAHMPHMIDRLIMQELQDTFPQEFDKTSSHRVRHSEDMQFAFSYFYFLMSAVQQLNISEVFDEIDTDHSGVLSDREIRTLATRIHELPLSLQDLTSLEQMLINCSKSLPSNLTHLHAVSPTQEAYYDPSMPPVTKGLVIHCKPITERIHKAFKDQNKYKFEIMGEEEIAFKMIRTNVSHVVGQLDDIRKNPRKFICLNDNIDHIHKDAGTVKAVLRDFYESMFPLPSQFELPREYRNRFLHMTELQEWRIYRDKL
modifications: N-linked glycans (up to five visible on each chain)
With B1, in “crystal structure”, the “stoichiometry N” value was 2.

The values are drawn from article PMC9388126 (Proceedings of the National Academy of Sciences of the …, 2022).
